Assay results as given in the supplement of paper PMC10567573.

B1: ANKRD40 (parent)
chain: YQELLRVCCCELGVNPDQVEKIRK

Variants of: B1
Assay: protein stability index of a GFP-peptide fusion (GPS, HEK-293T) (PSI 1-6); higher = more stable
Settings: c terminus: a fixed tail appended
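Also: lentivirally expressed fusions sorted by FACS into six bins by GFP to DsRed ratio, PSI derived from sequencing read proportions per bin multiplied by bin number.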

**Q.** With YQELLRVCCCELGVNPYQVEKIRK as the variant, how does the protein stability index read?
**A.** The protein stability index was 2.01.

**Q.** With YQELLRVCCCELGVNPDAVEKIRK as the variant, how does the protein stability index read?
**A.** Its protein stability index is 1.32.

**Q.** Which protein stability index does the source give for YQELLRVCCCELGVNPDCVEKIRK here?
**A.** The protein stability index was 1.52.

**Q.** Which protein stability index does the source give for YQELLRVCCCELGVNPDDVEKIRK here?
**A.** Its protein stability index is 2.73.

**Q.** With YQELLRVCCCELGVNPDEVEKIRK as the variant, how does the protein stability index read?
**A.** The protein stability index was 2.13.

**Q.** Which protein stability index does the source give for YQELLRVCCCELGVNPDFVEKIRK here?
**A.** Its protein stability index is 1.01.

**Q.** Which protein stability index does the source give for YQELLRVCCCELGVNPDGVEKIRK here?
**A.** Its protein stability index is 2.02.

**Q.** With YQELLRVCCCELGVNPDHVEKIRK as the variant, how does the protein stability index read?
**A.** Its protein stability index is 1.48.

**Q.** With YQELLRVCCCELGVNPDIVEKIRK as the variant, how does the protein stability index read?
**A.** Its protein stability index is 1.89.

**Q.** With YQELLRVCCCELGVNPDLVEKIRK as the variant, how does the protein stability index read?
**A.** The protein stability index was 1.67.

**Q.** Which protein stability index does the source give for YQELLRVCCCELGVNPDMVEKIRK here?
**A.** The protein stability index was 2.02.

**Q.** For YQELLRVCCCELGVNPDNVEKIRK, which protein stability index is on record?
**A.** Its protein stability index is 2.32.

**Q.** With YQELLRVCCCELGVNPDPVEKIRK as the variant, how does the protein stability index read?
**A.** Its protein stability index is 1.4.

**Q.** For YQELLRVCCCELGVNPDSVEKIRK, which protein stability index is on record?
**A.** The protein stability index was 2.08.

**Q.** Which protein stability index does the source give for YQELLRVCCCELGVNPDTVEKIRK here?
**A.** Its protein stability index is 2.16.

**Q.** For YQELLRVCCCELGVNPDVVEKIRK, which protein stability index is on record?
**A.** The protein stability index was 1.8.

**Q.** For YQELLRVCCCELGVNPDYVEKIRK, which protein stability index is on record?
**A.** The protein stability index was 1.19.

**Q.** Which protein stability index does the source give for YQELLRVCCCELGVNPDQAEKIRK here?
**A.** Its protein stability index is 1.79.

**Q.** With YQELLRVCCCELGVNPDQCEKIRK as the variant, how does the protein stability index read?
**A.** Its protein stability index is 2.1.

**Q.** For YQELLRVCCCELGVNPDQDEKIRK, which protein stability index is on record?
**A.** The protein stability index was 1.66.

**Q.** Which protein stability index does the source give for YQELLRVCCCELGVNPDQEEKIRK here?
**A.** Its protein stability index is 2.51.

**Q.** Which protein stability index does the source give for YQELLRVCCCELGVNPDQFEKIRK here?
**A.** Its protein stability index is 2.19.

**Q.** For YQELLRVCCCELGVNPDQGEKIRK, which protein stability index is on record?
**A.** Its protein stability index is 1.64.

**Q.** With YQELLRVCCCELGVNPDQHEKIRK as the variant, how does the protein stability index read?
**A.** Its protein stability index is 2.27.

**Q.** With YQELLRVCCCELGVNPDQIEKIRK as the variant, how does the protein stability index read?
**A.** The protein stability index was 2.25.

**Q.** For YQELLRVCCCELGVNPDQKEKIRK, which protein stability index is on record?
**A.** The protein stability index was 2.68.

**Q.** With YQELLRVCCCELGVNPDQLEKIRK as the variant, how does the protein stability index read?
**A.** The protein stability index was 2.2.

**Q.** For YQELLRVCCCELGVNPDQMEKIRK, which protein stability index is on record?
**A.** The protein stability index was 2.37.

**Q.** Which protein stability index does the source give for YQELLRVCCCELGVNPDQNEKIRK here?
**A.** The protein stability index was 1.34.

**Q.** Which protein stability index does the source give for YQELLRVCCCELGVNPDQPEKIRK here?
**A.** The protein stability index was 2.19.

**Q.** Which protein stability index does the source give for YQELLRVCCCELGVNPDQQEKIRK here?
**A.** The protein stability index was 2.29.

**Q.** For YQELLRVCCCELGVNPDQREKIRK, which protein stability index is on record?
**A.** The protein stability index was 1.6.

**Q.** For YQELLRVCCCELGVNPDQSEKIRK, which protein stability index is on record?
**A.** The protein stability index was 1.66.

**Q.** With YQELLRVCCCELGVNPDQWEKIRK as the variant, how does the protein stability index read?
**A.** The protein stability index was 1.75.

**Q.** For YQELLRVCCCELGVNPDQYEKIRK, which protein stability index is on record?
**A.** The protein stability index was 2.26.

**Q.** For YQELLRVCCCELGVNPDQVAKIRK, which protein stability index is on record?
**A.** The protein stability index was 1.97.

**Q.** For YQELLRVCCCELGVNPDQVCKIRK, which protein stability index is on record?
**A.** The protein stability index was 1.56.

**Q.** With YQELLRVCCCELGVNPDQVDKIRK as the variant, how does the protein stability index read?
**A.** The protein stability index was 2.94.

**Q.** Which protein stability index does the source give for YQELLRVCCCELGVNPDQVHKIRK here?
**A.** Its protein stability index is 1.26.

**Q.** Which protein stability index does the source give for YQELLRVCCCELGVNPDQVIKIRK here?
**A.** Its protein stability index is 3.43.

**Q.** For YQELLRVCCCELGVNPDQVKKIRK, which protein stability index is on record?
**A.** The protein stability index was 1.96.

**Q.** For YQELLRVCCCELGVNPDQVLKIRK, which protein stability index is on record?
**A.** The protein stability index was 2.4.

**Q.** Which protein stability index does the source give for YQELLRVCCCELGVNPDQVMKIRK here?
**A.** Its protein stability index is 1.85.

**Q.** For YQELLRVCCCELGVNPDQVNKIRK, which protein stability index is on record?
**A.** Its protein stability index is 1.99.

**Q.** Which protein stability index does the source give for YQELLRVCCCELGVNPDQVPKIRK here?
**A.** Its protein stability index is 1.66.

**Q.** Which protein stability index does the source give for YQELLRVCCCELGVNPDQVQKIRK here?
**A.** The protein stability index was 1.75.

**Q.** For YQELLRVCCCELGVNPDQVRKIRK, which protein stability index is on record?
**A.** Its protein stability index is 1.96.

**Q.** For YQELLRVCCCELGVNPDQVSKIRK, which protein stability index is on record?
**A.** Its protein stability index is 1.31.

**Q.** For YQELLRVCCCELGVNPDQVTKIRK, which protein stability index is on record?
**A.** The protein stability index was 1.47.

**Q.** Which protein stability index does the source give for YQELLRVCCCELGVNPDQVVKIRK here?
**A.** Its protein stability index is 1.99.

**Q.** With YQELLRVCCCELGVNPDQVEAIRK as the variant, how does the protein stability index read?
**A.** The protein stability index was 2.02.

**Q.** Which protein stability index does the source give for YQELLRVCCCELGVNPDQVECIRK here?
**A.** Its protein stability index is 1.82.

**Q.** Which protein stability index does the source give for YQELLRVCCCELGVNPDQVEDIRK here?
**A.** Its protein stability index is 1.66.

**Q.** With YQELLRVCCCELGVNPDQVEEIRK as the variant, how does the protein stability index read?
**A.** The protein stability index was 2.4.

**Q.** Which protein stability index does the source give for YQELLRVCCCELGVNPDQVEFIRK here?
**A.** The protein stability index was 2.97.

**Q.** Which protein stability index does the source give for YQELLRVCCCELGVNPDQVEGIRK here?
**A.** The protein stability index was 1.82.

**Q.** Which protein stability index does the source give for YQELLRVCCCELGVNPDQVEHIRK here?
**A.** Its protein stability index is 1.49.

**Q.** For YQELLRVCCCELGVNPDQVEIIRK, which protein stability index is on record?
**A.** Its protein stability index is 1.81.

**Q.** Which protein stability index does the source give for YQELLRVCCCELGVNPDQVELIRK here?
**A.** Its protein stability index is 1.05.

**Q.** For YQELLRVCCCELGVNPDQVENIRK, which protein stability index is on record?
**A.** Its protein stability index is 1.85.

**Q.** For YQELLRVCCCELGVNPDQVEPIRK, which protein stability index is on record?
**A.** The protein stability index was 1.

**Q.** Which protein stability index does the source give for YQELLRVCCCELGVNPDQVERIRK here?
**A.** Its protein stability index is 2.12.

**Q.** Which protein stability index does the source give for YQELLRVCCCELGVNPDQVEVIRK here?
**A.** The protein stability index was 2.54.

**Q.** Which protein stability index does the source give for YQELLRVCCCELGVNPDQVEWIRK here?
**A.** Its protein stability index is 2.33.

**Q.** Which protein stability index does the source give for YQELLRVCCCELGVNPDQVEYIRK here?
**A.** The protein stability index was 2.15.

**Q.** Which protein stability index does the source give for YQELLRVCCCELGVNPDQVEKARK here?
**A.** The protein stability index was 2.02.

**Q.** For YQELLRVCCCELGVNPDQVEKCRK, which protein stability index is on record?
**A.** The protein stability index was 2.13.

**Q.** For YQELLRVCCCELGVNPDQVEKDRK, which protein stability index is on record?
**A.** The protein stability index was 2.25.

**Q.** With YQELLRVCCCELGVNPDQVEKERK as the variant, how does the protein stability index read?
**A.** Its protein stability index is 2.14.

**Q.** With YQELLRVCCCELGVNPDQVEKFRK as the variant, how does the protein stability index read?
**A.** The protein stability index was 2.44.

**Q.** Which protein stability index does the source give for YQELLRVCCCELGVNPDQVEKGRK here?
**A.** The protein stability index was 2.

**Q.** For YQELLRVCCCELGVNPDQVEKHRK, which protein stability index is on record?
**A.** The protein stability index was 2.69.

**Q.** For YQELLRVCCCELGVNPDQVEKKRK, which protein stability index is on record?
**A.** Its protein stability index is 2.43.

**Q.** Which protein stability index does the source give for YQELLRVCCCELGVNPDQVEKLRK here?
**A.** The protein stability index was 1.93.

**Q.** Which protein stability index does the source give for YQELLRVCCCELGVNPDQVEKMRK here?
**A.** Its protein stability index is 1.63.

**Q.** Which protein stability index does the source give for YQELLRVCCCELGVNPDQVEKNRK here?
**A.** Its protein stability index is 3.16.

**Q.** For YQELLRVCCCELGVNPDQVEKPRK, which protein stability index is on record?
**A.** Its protein stability index is 1.18.

**Q.** Which protein stability index does the source give for YQELLRVCCCELGVNPDQVEKQRK here?
**A.** Its protein stability index is 2.99.

**Q.** With YQELLRVCCCELGVNPDQVEKRRK as the variant, how does the protein stability index read?
**A.** Its protein stability index is 1.88.

**Q.** Which protein stability index does the source give for YQELLRVCCCELGVNPDQVEKSRK here?
**A.** The protein stability index was 2.06.

**Q.** Which protein stability index does the source give for YQELLRVCCCELGVNPDQVEKVRK here?
**A.** Its protein stability index is 1.41.

**Q.** Which protein stability index does the source give for YQELLRVCCCELGVNPDQVEKWRK here?
**A.** Its protein stability index is 1.54.

**Q.** With YQELLRVCCCELGVNPDQVEKYRK as the variant, how does the protein stability index read?
**A.** Its protein stability index is 2.57.

**Q.** Which protein stability index does the source give for YQELLRVCCCELGVNPDQVEKIAK here?
**A.** Its protein stability index is 1.91.

**Q.** For YQELLRVCCCELGVNPDQVEKIDK, which protein stability index is on record?
**A.** The protein stability index was 2.04.

**Q.** Which protein stability index does the source give for YQELLRVCCCELGVNPDQVEKIEK here?
**A.** Its protein stability index is 1.6.

**Q.** For YQELLRVCCCELGVNPDQVEKIFK, which protein stability index is on record?
**A.** Its protein stability index is 1.55.

**Q.** For YQELLRVCCCELGVNPDQVEKIGK, which protein stability index is on record?
**A.** The protein stability index was 1.56.

**Q.** With YQELLRVCCCELGVNPDQVEKIHK as the variant, how does the protein stability index read?
**A.** Its protein stability index is 1.84.

**Q.** Which protein stability index does the source give for YQELLRVCCCELGVNPDQVEKIIK here?
**A.** Its protein stability index is 1.8.

**Q.** Which protein stability index does the source give for YQELLRVCCCELGVNPDQVEKIKK here?
**A.** Its protein stability index is 1.25.

**Q.** Which protein stability index does the source give for YQELLRVCCCELGVNPDQVEKILK here?
**A.** Its protein stability index is 1.98.

**Q.** Which protein stability index does the source give for YQELLRVCCCELGVNPDQVEKIMK here?
**A.** Its protein stability index is 2.02.

**Q.** Which protein stability index does the source give for YQELLRVCCCELGVNPDQVEKINK here?
**A.** The protein stability index was 1.93.
